From the DeepSol protein solubility set come the findings set out here.

The nature of the series: soluble on expression in E. coli; label from the status in PepcDB or PDB records.
“MQVSIVNEHKYRELEPLNEMLVKRGGVKMIPEPKFVISGLVDNEEYVIKLRIDLADEFRYSYQNQQWTPFAPSTKNSKLSAITETEHRKETGATWNMRIVQFDKLLITREFNDIQRNVIHVEPNHKYIPVLTIQNVTTGKSTEFQFQQMEFIAVKSYQSARIRHTKRAPRKMNLAPGSSQKPQLIVPDILHSPTYGFTAAPPPFPFEYWLLYPQIQYQIQQLAYSLPMGPPMVPIHHIQCTEASQRVYAPEYGWNSILMPGAHKEQDDHYMFHHEIWAPQDHELEKLHVLTEQKNKPSETPQ”: the “soluble on expression in E. coli” value is listed as “not soluble”.
For the sequence “MQYGAIVVTFNRKQLLIESITALLNQTVPPAKIIIIDNHSTDGTKAELQTADILANPSVDYRYLTKNIGGAGGFARGMQIAAADPNLDWASMSDDDAIFEPDYFEKLIAYQQDHPNRQILTGSVYIEDGRLQADQRNRFTNWSTFQAQAVPEREYRGNFEFDQYTFCGVFMSVAVIKQVGVADAGYFIWWDDCEYAVRTAKLSRPVNVSAAKLIHKTALPSLDFKSKFVPDWRLYYGQRNRLITIKRWRANSLVSLGWLLGFYARLAIQLCGPFYRGYRKMVIRVYLEALRDASREREGLNPNFMPGQKFLEHHHHHH”, the “soluble on expression in E. coli” value was “soluble”.
Next, “MRAAQALPQTAHVSHFGHGPRLVLALHCTIAHSGAWKGLTRILGEEAQFTAPDMLSHGRSPDWDGQGCFQDRILGIARTCLTEAPMDVIGHSFGATVALRLAVEHPERVRSLTLIEPVFFAVARQDAPELIDSHASDAQPYLDALAAGDHALAARLFNRMWSTADSPRWPDLPEATRAAMIRGIHVVPTMDAALFDDTAGLLAPGRLDRAAMPVLLLRGALTHPVMQAISMGLQRRLPDAVEMVIEGAGHMLPITHPDETAAHIRALWSRTG”: “not soluble”; “MRAILILLDGLGDRASEILNNKTPLQFAKTPNLDRLAENGMCGLMTTYKEGIPLGTEVAHFLLWGYSLEEFPGRGVIEALGEDIEIEKNAIYLRASLGFVKKDEKGFLVIDRRTKDISREEIEKLVDSLPTCVDGYKFELFYSFDVHFILKIKERNGWISDKISDSDPFYKNRYVMKVKAIRELCKSEVEYSKAKDTARALNKYLLNVYKILQNHKINRKRRKLEKMPANFLLTKWASRYKRVESFKEKWGMNAVILAESSLFKGLAKFLGMDFIKIESFEEGIDLIPELDYDFIHLHTKETDEAAHTKNPLNKVKVIEKIDKLIGNLKLREDDLLIITADHSTPSVGNLIHSGESVPILFYGKNVRVDNVKEFNEISCSNGHLRIRGEELMHLILNYTDRALLYGLRSGDRLRYYIPKDDEIDLLEG”: “not soluble”; “MRAKKRKFLQKEELSKLLQSLDMSQIGFGWFVMLAAKTGMRYAEALAITPADFDWTAQTISINKTWDYKYNKGFAKTKTLSSVRTIKIDWQIVGQFKPLIKDFPEDEPIFVEKFGDGTYKRQFNSTINNFLAVKCNETGITQISFHALRHTHASVLLAEGVSIHTISARLGHADVGVTQETYAHVLDELQKKDDQKMLSVLMQIALEHHHHHH”: “not soluble”.
Consider “MRAVLGGEDDGGVGLRVIDNNEVSHGISVNFDGEITYHEQDGYPDDPSERTRAGNIHVNQARRFAKYWVYRKRGYDTIPPTENPDRIIAAAIALTPLEPETAETHLGDFYQHFQSINGTADSPVEMPEGVPEQGGGTVYQKDIYVGLEDETLGTIAADLLADPKLMELVGKSVGVGGESLVGAEYVPTFKELIAEASDRDSDSLPSLSEGLLLEATSGIHVHWDDPPGEYHTQWGDQPDLGRDPAARIEIFPFEPDSITELQAQVARHLLCQIRDCYLTMGIAPPEQFRILGHGRHEATGLYASYDIYDEYFDPNAEIDTWYVENTPEGAYEHEPANKNVQTKA”, for which the “soluble on expression in E. coli” value is recorded as “not soluble”.
Next, “MRCPRCHHNNSRVIDSRQADDGRAIRRRRECENCSYRFTTFERIEAAPLLVIKKNGDREEFNRDKILRGLIRSAEKRPVAMEQMVQIVDNVENRVRSLGENEVSTTLIGEYVMEDLVNLDEIAYIRFASVYRQFKDMSVFLKELQDIVDKAKSSSPDSEN”: “not soluble”; “MRDLSHALGSGEPYPGDPPAAVTPHATMAADGYRVSAVACSTHSGTHIDAPSHLLADGRSLDAFDVSAFRFDAHVVDCTGYGPEDAIPVDRVPALDDHDMVVFNTGTAADWGRPEYYEHPHLSVAAAERCADAGCAVAVDAPSVDPTRTAPAGESSDAAAYPAHRALLGAGALIVENVTNLDGLPERVPVQAYPLPVAADGAPARVIAAPLEHHHHHH”: “soluble”; “MRDRVRWRVLSLPPLAQWREVMAALEVGPEAALAYWHRGFRRKEDLDPPLALLPLKGLREAAALLEEALRQGKRIRVHGDYDADGLTGTAILVRGLAALGADVHPFIPHRLEEGYGVLMERVPEHLEASDLFLTVDCGITNHAELRELLENGVEVIVTDHHTPGKTPPPGLVVHPALTPDLKEKPTGAGVAFLLLWALHERLGLPPPLEYADLAAVGTIADVAPLWGWNRALVKEGLARIPASSWVGLRLLAEAVGYTGKAVEVAFRIAPRINAASRLGEAEKALRLLLTDDAAEAQALVGELHRLNARRQTLEEAMLRKLLPQADPEAKAIVLLDPEGHPGVMGIVASRILEATLRPVFLVAQGKGTVRSLAPISAVEALRSAEDLLLRYGGHKEAAGFAMDEALFPAFKARVEAYAARFPDPVREVALLDLLPEPGLLPQVFRELALLEPYGEGNPEPLFLLFGAPEEARRLGEGRHLAFRLKGVRVLAWKQGDLALPPEVEVAGLLSENAWNGHLAYEVQAVDLRKPEALEGGIAPFAYPLPLLEALARARLGEGVYVPEDNPEGLDYAWKAGFRLLPPEEAGLWLGLPPRPVLGRRVEVALGREARARLSAPPVLHTPEARLKALVHRRLLFAYERRHPGLFSEALLAYWEVNRVQEPAGSP”: “soluble”.
Regarding “MRDVPNIGFISLGCPKNLVDSERILTELRSDGYNIIPSYENADLVIVNTCGFIDSAVQESLEAVGEALKENGKVIVTGCLGAKENQIREVHPKVLEITGPHSYEAVMQHVHKYVPRPERNMYTSLVPAQGVKLTPKHYAYLKISEGCDHRCTFCIIPSMRGDLDSRPIVQILDEAKRLADSGVKELLIVSQDTSAYALDQTKENQNKTVFWNGVPIKNNLISLCEQLATLGIWIRLHYVYPYPHVDNLIPLMAEGKILPYLDIPLQHASPKILKAMKRPGSIDRTLERIKQWREICPELTLRSTFIVGFPGETEEDFQMLLDFLTEAQLDRVGCFKFSPVDGAVATEMAEQVPEEVKEERFHRFMQVQQRISVARLQQKIGKTLAIIIDEIDEYGIIGRSMADAPEIDGVVYVDNISQQAVTVGQIILVTITNADEYDLWGTYLEHHHHHH”, the “soluble on expression in E. coli” value was “soluble”.
“MRDYSELEIFEGNPLDKWNDIIFHASKKLSKKELERLLELLALLETFIEKEDLEEKFESFAKALRIDEELQQKIESRKTDIVIQSMANILSGSGSGSGSSGNPLDKWNDIIFHASKKLSKKELERLLELLALLETFIEKEDLEEKFESFAKALRIDEELQQKIESRKTDIVIQSMANILSGLEHHHHHH”: the “soluble on expression in E. coli” value is recorded as “soluble”.
Turning to “MREETFPGDIAQYFSVIHRAFLKDTKGEYAKYDLNPTNAYILLYLFFNKNSSQSELAQKLVINKGQITRETTKLLSLNFISKEISSKNRTTNVIAISSDGKKVIKKIIDIRNQWWEEKLKLSGVKTNSEFLDSLKKLESILN”, the “soluble on expression in E. coli” value is “not soluble”.
Regarding “MREETKCALIIDESLPLGLIANTAAILGAALGKNKPDLIGETVTDGSGIDHLGIVKIPIPILKGNAELLHQLSQKLLTDEFNDILTVDFTDVAQSIHTYEAYIEAFQSTAASDYRYFGIGICGDKKKVARLTGSLGLLRLEHHHHHH”, the “soluble on expression in E. coli” value is “soluble”.
Next, “MRELQADFVKPARIDILLDMPPASRDLQLKHSWNSEDRSLNIFVKEDDKLTFHRHPVAQSTDCIRGKVGLTKGLHIWEIYWPTRQRGTHAVVGVCTADAPLHSVGYQSLVGSTEQSWGWDLGRNKLYHDSKNCAGVTYPAILKNDEAFLVPDKFLVALDMDEGTLSFIVDQQYLGIAFRGLRGKKLYPIVSAVWGHCEITMRYIGGLDPEPLPLMDLCRRTIRQKI”: “soluble”; “MREPYYKKLLGIKNYLIRKNYPEELEILIPKYVEENKELRGCIDCLSCLSVCPAREVSDYPGPTFMRQLARFAFDKRDEDGREITAYFENIYNCTTCAKCVEVCPKEIDIVHRAIEKLRALAFSKGYYIENHLEHHHHHH”: “not soluble”; “MRETIPIKYIDTIEINKLSIQDLEDLSSCKYKLLSAYLIGKIPANKILDADELEIYHNERTKKILAKAIKARKLVIVLKATRLCNLRCTYCHSWAEGPNQTILFSTLIHIVRQILAIPNVNRFEFVWHGGEVTLLKPAFFKKLIWLQEQFKRPEQYITNTMQSNIVNISDEWLIFIKGIGMNVGISLDGIPAVNDKRRVDFRGRGTSDRIAKGIKKLQKYDILYGALIVVDREVYQTDMREMLDYFILIELNGIEFLNIVPDNRLTAGEDIGNNFISYAEFIKFLSALFVIWIKGYREKIHIAIFEDFISVLEHPEKKLSACYWSGNCSQEIITLEPNGDVSPCDKYRGDAGSIYGSLLKTDLAGLLTQSSHNQQAIDEEVAATRKMQHCEWFSICHGGCPHDRVINRRHTKGYNDECCGTGKLLATIKAYLADIR”: “not soluble”.
As for “MRETRMVYPVFPGETNHYGTLFGGTVLAWMDQAAFVAATRHARKKVVTVHADAVDFKRPVPLGAIVELVARLKEVGRTSMRVEVEMWVEPVKEGEEAYLAARGGFVLVAVDERGRPSPVPPLEGGEAHAPHGP”, the “soluble on expression in E. coli” value was “soluble”.
Next, “MRFFVSGMPGVGKTTLAKRIADEVRREGFKVGGIITEEIREGGKRTGFRVIALDTGEIGRLAYVGYGYPRLGKYVIDVEGFERVAIPALSRALRGADLIVIDEIGPMEFKSNEFLKALGLVLKSEKHLLATVHRRLVDRYRPLGEYYWLTPENRNAVFSEILGRIKGLLKEKLEHHHHHH”: “soluble”.
“MRFIADLVHEKKQLVEKAEAILNEAEKAGGSLTKEQEQQFNRYKDRITRINDSIDEELSKIRTSEPILNMPHNPMAREDVSKIPVTKAISKSFRGMFYGNETVSLSNNGFHSMDEFLRTLHSGRADNRLINASMVEGIPEFGGYSVPEEYGAFLMDKSLENEIIRPRATVWAMGSETKKVSAFDGADRTNHLFGGISGEWLEEGQTGTRKTAKLRLIQLKAKKLACFSQASNELIADGMSFEEMLAGALIKGLGWYMDYAFINGTGEGQPLGIINDPALITVNKEASQEPATITYQNVVNMFSRLAPSCFTNAVWLANPSVIPQLLTMTITIGTGGAQIPVFREESGKFTLLGKEVLFTEKCPTLGAKGDLILADLSQYAIGMRKEIALDRSNVPGWMEDMTDYRVIVRVDGQGTWDKPITPKNGATLSWAVALEAR”: the “soluble on expression in E. coli” value was “soluble”.
Next, “MRFLDRFFKKKKKEEALWTKCPNCKSLLYVPDLESNLKVCPNCDYHFTLSALERIKYTLDEENPELLFEEILPADPLNFKDTKSYKDRIKKAQEETGLSEAIVITEGHIKGKRAILAVMDFNFIGGSMGSVVGERFFRACERAVETKTPLISFAASGGARMQEGILSLMQMAKTTFGVGLLKEANIPYISVLTNPTMGGVSASFAFLGDLILAEPKALIGFAGPRVIEQTIKQKLPEGFQTAEFLLEKGQIDMVVHRKELKDKLAYFLEVMYYAKRLEHHHHHH”: “not soluble”.
